Target: β-secretase (Homo sapiens, UniProt P56817)
Experiment: β-secretase cleavage of peptide substrates and peptide libraries followed by LC/MS
Format: biochemical
Conditions: for Relative rates of hydrolysis: hydrolysis by β-secretase, Swedish mutant EVNLDAEF (SEQ ID NO: 257) = 1, each peptide 1 μM, pH 4.5, 37° C.; for rate of hydrolysis by β-secretase, times faster than the Swedish mutant sequence (SEQ ID NO: 257): relative to Swedish mutant APP sequence, peptides incubated simultaneously with β-secretase; for rate of cleavage (depletion of full length substrate) of P1′ peptide library components: P1′ peptide library treated with β-secretase, FIG. 2; for formation of C-terminal cleavage products from the P1′ peptide library: FIG. 3
Method: Following synthesis and purification, each of the eight peptide libraries was incubated with the enzyme β-secretase and the relative rates of cleavage of each individual peptide library component was followed with liquid chromatography/mass spectrometry (LC/MS) with analysis of both the depletion of the full length peptide substrate, as well as the formation of peptide cleavage fragments. The enzyme β-secretase was incubated at concentrations ranging from 5 to 50 nM at pH 4.5 with each of the peptide libraries and/or mixtures of synthetic peptide substrates.
The mixtures of substrates and enzyme were incubated in an Agillent Technology 1100 series liquid chromatograph with a temperature controlled autosampler. The temperature for all β-secretase enzymatic assays was held constant at 37° C. A 100 μl aliquot of each reaction mixture was injected onto a 1×50 mm C18 reverse phase 1c column (Metachem Technologies Inc., Torrance, Calif.) every two hours to monitor reaction progress. After injection, a highly optimized solvent gradient was delivered to the column to maximize resolving power for each of the substrate library components. […] After the LC/MS run, the data were processed by selected-ion chromatograms for each of the peptide substrate library components by extracting 0.5 Da mass windows surrounding the calculated mass values of each of the peptides.

β-secretase, sequence (P56817 46-501): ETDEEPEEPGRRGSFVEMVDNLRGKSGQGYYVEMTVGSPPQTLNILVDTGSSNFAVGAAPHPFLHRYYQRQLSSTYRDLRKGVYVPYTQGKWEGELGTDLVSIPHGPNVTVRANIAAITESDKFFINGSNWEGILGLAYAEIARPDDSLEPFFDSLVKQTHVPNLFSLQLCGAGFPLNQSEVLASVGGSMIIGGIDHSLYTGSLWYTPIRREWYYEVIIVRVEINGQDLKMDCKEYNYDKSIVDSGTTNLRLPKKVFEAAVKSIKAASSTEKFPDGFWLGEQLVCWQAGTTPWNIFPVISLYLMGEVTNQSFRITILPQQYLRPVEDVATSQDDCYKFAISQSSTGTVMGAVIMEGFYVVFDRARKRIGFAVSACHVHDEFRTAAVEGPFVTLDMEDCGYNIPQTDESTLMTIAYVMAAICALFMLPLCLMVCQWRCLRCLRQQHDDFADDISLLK

Row | Substance | Relative rates of hydrolysis | rate of hydrolysis by β-secretase, times faster than the Swedish mutant sequence (SEQ ID NO: 257) | rate of cleavage (depletion of full length substrate) of P1′ peptide library components | formation of C-terminal cleavage products from the P1′ peptide library
1 | EVNFAAEF (Beta-Secretase Cleavage Site) | 17 | – | – | –
2 | EVNFAVEF (Beta-Secretase Cleavage Site) | 30 | roughly 30 times | – | –
3 | EVNFEAEF (Beta-Secretase Cleavage Site) | 17 | – | – | –
4 | EVNFEVEF (Beta-Secretase Cleavage Site) | 60 | 60 times | – | –
5 | EVNLDAEF (Beta-Secretase Cleavage Site) [8-mer of Swedish mutant APP around the β-secretase cleavage site, reference compound] | 1 | – | intermediate | less conducive to β-secretase hydrolysis than either Glu or Ala
6 | P1′=Glu: P1′ peptide library component: Swedish mutant APP 8-mer with Glu at P1′ (EVNLEAEF) | – | – | most rapidly hydrolyzed | more rapid and comparable rates of formation
7 | P1′=Gly: P1′ peptide library component: Swedish mutant APP 8-mer with Gly at P1′ (EVNLGAEF) | – | – | not cleaved | –
8 | P1′=Pro: P1′ peptide library component: Swedish mutant APP 8-mer with Pro at P1′ (EVNLPAEF) | – | – | not cleaved | –
